Measurements taken from publication PMC4239663, “Structural basis for extracellular cis and trans RPTPσ signal competition in synaptogenesis” (Nature Communications, 2014).
Where two headings read alike, the source gives them in different places.

What was measured:
[1] = target: T1, chicken TrkC LRRIg1cryst (crystallization protein) (chicken, UniProt Q91044 32-302, lack residues 63–77 | N163Q | N232Q | N259Q | N267Q | N294Q); assay: crystal structure; 2.5 Å, space group P2; 10% PEG 20k, 20% PEG MME 550, 0.1 M bicine/Tris pH 8.5, 0.03 M sodium nitrate, disodium hydrogen phosphate and ammonium sulphate; 20.5 °C; settings: both partners purified
T1 construct: chicken TrkC LRRIg1, amino acids 32–302 of NCBI NM_205169.1, lacking residues 63–77; extra vector residues ETG (N-terminal) and GT (C-terminal) seen in the model; The methods name only the pHL-Avitag3 vector for this construct; also called cTrkC LRRIg1_(cryst)
T1 sequence (looked up): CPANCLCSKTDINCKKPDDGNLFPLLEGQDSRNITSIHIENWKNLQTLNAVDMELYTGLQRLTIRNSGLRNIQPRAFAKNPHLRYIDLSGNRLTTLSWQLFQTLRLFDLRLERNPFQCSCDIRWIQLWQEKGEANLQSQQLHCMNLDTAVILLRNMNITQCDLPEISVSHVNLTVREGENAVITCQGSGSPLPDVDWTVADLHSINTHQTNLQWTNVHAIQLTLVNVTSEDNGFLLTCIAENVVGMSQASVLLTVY

[2] = target: T2, TrkC (species and construct not stated; Supplementary Figs 5a,b and 8i) ( (mouse or chicken constructs …, UniProt Q6VNS1 32-825); assay: SPR; equilibrium; RPTPσ and TrkC truncations (Supplementary Fig. 5a,b); species and who was immobilized not given; settings: both partners purified
T2 construct: TrkC ectodomain construct; they may differ

[3] = target: T3, mouse TrkC LRRIg1 (soluble) (mouse, UniProt Q6VNS1 32-302); assay: SPR
T3 chain: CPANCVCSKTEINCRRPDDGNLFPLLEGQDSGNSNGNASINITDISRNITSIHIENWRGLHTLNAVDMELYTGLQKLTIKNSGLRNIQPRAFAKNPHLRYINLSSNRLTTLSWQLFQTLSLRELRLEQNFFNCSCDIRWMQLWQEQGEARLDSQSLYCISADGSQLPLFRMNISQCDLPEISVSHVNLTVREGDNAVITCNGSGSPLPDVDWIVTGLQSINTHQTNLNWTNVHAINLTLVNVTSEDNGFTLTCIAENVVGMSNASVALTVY

[4] = target: T3, mouse TrkC LRRIg1 (soluble); assay: SEC-MALS; Superdex200 HR10/30 in 10 mM Tris, 50 mM NaCl, pH 7.5; refractive index and multi-angle light scattering detectors
mouse TrkC LRRIg2 = target: T4, mouse TrkC LRRIg2 (Mus musculus); assay: SPR
T4 chain: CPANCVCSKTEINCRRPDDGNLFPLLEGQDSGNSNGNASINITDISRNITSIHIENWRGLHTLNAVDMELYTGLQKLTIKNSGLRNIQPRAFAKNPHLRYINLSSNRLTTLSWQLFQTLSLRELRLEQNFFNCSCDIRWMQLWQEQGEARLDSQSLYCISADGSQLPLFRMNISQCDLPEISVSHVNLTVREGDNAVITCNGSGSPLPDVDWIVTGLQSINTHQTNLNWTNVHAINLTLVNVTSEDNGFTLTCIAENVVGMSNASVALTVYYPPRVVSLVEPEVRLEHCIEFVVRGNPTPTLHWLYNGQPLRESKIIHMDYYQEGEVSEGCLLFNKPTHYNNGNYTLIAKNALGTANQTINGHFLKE

[5] = target: T5, mouse TrkC LRRIg1, C-terminal Avitag, immobilized (mouse, UniProt Q6VNS1 32-302, biotin on the Avitag (enzymatic)); assay: SPR
T5 chain: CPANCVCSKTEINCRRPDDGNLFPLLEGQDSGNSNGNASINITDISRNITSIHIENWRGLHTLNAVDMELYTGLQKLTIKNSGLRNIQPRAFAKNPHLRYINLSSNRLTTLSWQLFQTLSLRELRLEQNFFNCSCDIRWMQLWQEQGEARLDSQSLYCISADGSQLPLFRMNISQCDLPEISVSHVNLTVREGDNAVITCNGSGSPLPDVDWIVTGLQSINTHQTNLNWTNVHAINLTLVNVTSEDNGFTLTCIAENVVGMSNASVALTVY

[6] = target: T6, chicken RPTPσ Ig1–3, C-terminal Avitag, immobilized (chicken, UniProt F1NWE3 29-316, biotin on the Avitag (enzymatic)); assay: SPR; equilibrium; biotinylated chicken RPTPσ Ig1–3 (wild type or mutants) immobilized on streptavidin-coated CM5 chips, chicken TrkC LRRIg1 as analyte; 10 mM HEPES pH 7.5, 150 mM NaCl, 0.01% Tween 20, 25 °C; settings: both partners purified
T6 construct: chicken RPTPσ Ig1–3, amino acids 29–316 of NCBI NM_205407.1; not shown: Avitag (BirA recognition site), C-terminal, kept
T6 sequence (looked up): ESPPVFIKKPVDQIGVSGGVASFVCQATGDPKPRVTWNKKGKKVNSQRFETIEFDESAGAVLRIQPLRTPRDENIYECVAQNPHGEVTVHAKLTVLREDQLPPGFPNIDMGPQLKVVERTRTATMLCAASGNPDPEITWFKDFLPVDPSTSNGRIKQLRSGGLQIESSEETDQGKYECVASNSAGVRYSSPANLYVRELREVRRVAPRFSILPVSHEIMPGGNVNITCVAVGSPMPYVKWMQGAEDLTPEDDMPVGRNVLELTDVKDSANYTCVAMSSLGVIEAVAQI

[7] = target: T7, chicken RPTPσ N73S+S74N (RPTPδ-like) Ig1–3, C-terminal Avitag (chicken, UniProt F1NWE3 29-316, N73S | S74N, biotin on the Avitag (enzymatic)); assay: as above; settings: both partners purified
T7 construct: chicken RPTPσ Ig1–3, amino acids 29–316 of NCBI NM_205407.1; not shown: Avitag (BirA recognition site), C-terminal, kept
T7 sequence (looked up): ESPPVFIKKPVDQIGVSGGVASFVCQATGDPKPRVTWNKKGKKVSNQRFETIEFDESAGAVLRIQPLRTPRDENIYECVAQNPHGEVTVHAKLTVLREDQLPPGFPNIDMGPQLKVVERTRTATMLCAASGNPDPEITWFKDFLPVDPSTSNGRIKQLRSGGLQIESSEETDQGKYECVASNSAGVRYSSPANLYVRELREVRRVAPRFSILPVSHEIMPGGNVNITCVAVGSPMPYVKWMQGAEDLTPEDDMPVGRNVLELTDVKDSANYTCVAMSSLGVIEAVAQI

[8] = target: T3, mouse TrkC LRRIg1 (soluble); assay: SPR
[9] = target: T3, mouse TrkC LRRIg1 (soluble); assay: SPR
[10] = target: T8, mouse TrkC LRRIg1, C-terminal Avitag, immobilized (mouse, UniProt Q6VNS1 32-302, biotin on the Avitag (enzymatic)); assay: SPR; equilibrium; biotinylated mouse TrkC LRRIg1 (wild type or D240A+D242A) immobilized on streptavidin-coated CM5 chips, human RPTP proteins as analytes; 10 mM HEPES pH 7.5, 150 mM NaCl, 0.01% Tween 20, 25 °C; in Fig. 6a also with increasing HS or heparin-dp10; settings: both partners purified
T8 construct: mouse TrkC, leucine-rich repeat domain and first Ig domain, amino acids 32–302 of NCBI BC139764.1; not shown: Avitag (BirA recognition site), C-terminal, kept

B1: chicken RPTPσ Ig1–2 (as found in the 2.5 Å complex crystals) (domain or fragment)
chain: ESPPVFIKKPVDQIGVSGGVASFVCQATGDPKPRVTWNKKGKKVNSQRFETIEFDESAGAVLRIQPLRTPRDENIYECVAQNPHGEVTVHAKLTVLREDQLPPGFPNIDMGPQLKVVERTRTATMLCAASGNPDPEITWFKDFLPVDPSTSNGRIKQLRSGGLQIESSEETDQGKYECVASNSAGVRYSSPANLYVR
notes: chicken RPTPσ; the crystallization protein was Ig1–3 (amino acids 29–316 of NM_205407.1); the cleavage site in the Ig2–Ig3 linker is not determined; also called cRPTPσ Ig1-2; source: HEK-293S GnTI− cells as Ig1–3, purified; Ig3 absent from the crystals, proteolytic cleavage the most likely reason
For B1, the “stoichiometry N” value [1] was 1.

B2: RPTPσ Ig1–2 (species not stated; Supplementary Fig. 5a) (domain or fragment)
chain: EEPPRFIKEPKDQIGVSGGVASFVCQATGDPKPRVTWNKKGKKVNSQRFETIEFDESAGAVLRIQPLRTPRDENVYECVAQNSVGEITVHAKLTVLREDQLPSGFPNIDMGPQLKVVERTRTATMLCAASGNPDPEITWFKDFLPVDPSASNGRIKQLRSGALQIESSEETDQGKYECVATNSAGVRYSSPANLYVRV
B2 showed a Kd [2] of 2400 nM.

B3: human RPTPσ Ig1-FN3 (domain or fragment)
chain: EEPPRFIKEPKDQIGVSGGVASFVCQATGDPKPRVTWNKKGKKVNSQRFETIEFDESAGAVLRIQPLRTPRDENVYECVAQNSVGEITVHAKLTVLREDQLPSGFPNIDMGPQLKVVERTRTATMLCAASGNPDPEITWFKDFLPVDPSASNGRIKQLRSGALQIESSEETDQGKYECVATNSAGVRYSSPANLYVRVRRVAPRFSILPMSHEIMPGGNVNITCVAVGSPMPYVKWMQGAEDLTPEDDMPVGRNVLELTDVKDSANYTCVAMSSLGVIEAVAQITVKSLPKAPGTPMVTENTATSITITWDSGNPDPVSYYVIEYKSKSQDGPYQIKEDITTTRYSIGGLSPNSEYEIWVSAVNSIGQGPPSESVVTRTGEQAPASAPRNVQARMLSATTMIVQWEEPVEPNGLIRGYRVYYTMEPEHPVGNWQKHNVDDSLLTTVGSLLEDETYTVRVLAFTSVGDGPLSDPIQVKTQQGVPGQPMNLRAEARSETSITLSWSPPRQESIIKYELLFREGDHGREVGRTFDPTTSYVVEDLKPNTEYAFRLAARSPQGLGAFTPVVRQRTL
In the case of B3, the Kd [3] is reported as 468 nM, the stoichiometry N [4] is reported as 1 and the Kd (mouse TrkC LRRIg2) is reported as 202 nM. For the same binder, the Kd [5] was 278 nM.

B4: chicken TrkC LRRIg1 (analyte of Fig. 3c) (domain or fragment)
chain: CPANCLCSKTDINCKKPDDGNLFPLLEGQDSGSSNGNTSINITDISRNITSIHIENWKNLQTLNAVDMELYTGLQRLTIRNSGLRNIQPRAFAKNPHLRYIDLSGNRLTTLSWQLFQTLRLFDLRLERNPFQCSCDIRWIQLWQEKGEANLQSQQLHCMNLDTAVILLRNMNITQCDLPEISVSHVNLTVREGENAVITCQGSGSPLPDVDWTVADLHSINTHQTNLQWTNVHAIQLTLVNVTSEDNGFLLTCIAENVVGMSQASVLLTVY
Work on B4 yielded a Kd [6] of 3500 nM and a Kd [7] greater than 21000 nM.

B5: RPTPσ Ig1–3 (species not stated; Supplementary Figs 5a and 8i) (domain or fragment)
chain: EEPPRFIKEPKDQIGVSGGVASFVCQATGDPKPRVTWNKKGKKVNSQRFETIEFDESAGAVLRIQPLRTPRDENVYECVAQNSVGEITVHAKLTVLREDQLPSGFPNIDMGPQLKVVERTRTATMLCAASGNPDPEITWFKDFLPVDPSASNGRIKQLRSGALQIESSEETDQGKYECVATNSAGVRYSSPANLYVRVRRVAPRFSILPMSHEIMPGGNVNITCVAVGSPMPYVKWMQGAEDLTPEDDMPVGRNVLELTDVKDSANYTCVAMSSLGVIEAVAQITVKSLPKA
B5 was tested, and the Kd [8] was 580 nM and the Kd [9] was 551 nM.

B6: human RPTPδ sEcto (domain or fragment)
chain: ETPPRFTRTPVDQTGVSGGVASFICQATGDPRPKIVWNKKGKKVSNQRFEVIEFDDGSGSVLRIQPLRTPRDEAIYECVASNNVGEISVSTRLTVLREDQIPRGFPTIDMGPQLKVVERTRTATMLCAASGNPDPEITWFKDFLPVDTSNNNGRIKQLRSESIGGTPIRGALQIEQSEESDQGKYECVATNSAGTRYSAPANLYVRELREVRRVPPRFSIPPTNHEIMPGGSVNITCVAVGSPMPYVKWMLGAEDLTPEDDMPIGRNVLELNDVRQSANYTCVAMSTLGVIEAIAQITVKALPKPPGTPVVTESTATSITLTWDSGNPEPVSYYIIQHKPKNSEELYKEIDGVATTRYSVAGLSPYSDYEFRVVAVNNIGRGPPSEPVLTQTSEQAPSSAPRDVQARMLSSTTILVQWKEPEEPNGQIQGYRVYYTMDPTQHVNNWMKHNVADSQITTIGNLVPQKTYSVKVLAFTSIGDGPLSSDIQVITQTGVPGQPLNFKAEPESETSILLSWTPPRSDTIANYELVYKDGEHGEEQRITIEPGTSYRLQGLKPNSLYYFRLAARSPQGLGASTAEISARTMQSKPSAPPQDISCTSPSSTSILVSWQPPPVEKQNGIITEYSIKYTAVDGEDDKPHEILGIPSDTTKYLLEQLEKWTEYRITVTAHTDVGPGPESLSVLIRTNEDVPSGPPRKVEVEAVNSTSVKVSWRSPVPNKQHGQIRGYQVHYVRMENGEPKGQPMLKDVMLADAQWEFDDTTEHDMIISGLQPETSYSLTVTAYTTKGDGARSKPKLVSTTGAVPGKPRLVINH
B6 was tested, and the Kd [10] was greater than 22000 nM.
